Assay results reported in article PMC3827224.

Molecular target: rhodamine-labelled fibronectin from human plasma (human)

Substance: F1 functional upstream domain (FUD) peptide of Streptococcus pyogenes F1 (domain or fragment)
- decrease of rhodamine-fibronectin incorporation into the extracellular matrix of HDF fibroblasts (fluorescence plate assay), 500 nM bead-immobilized peptide, after 12 and 24 hours: 80%

Substance: FnBPA-derived peptide containing fibronectin-binding repeats 1-11 (FnBR1-11) (domain or fragment)
- decrease of rhodamine-fibronectin incorporation into the extracellular matrix of HDF fibroblasts (fluorescence plate assay), 500 nM bead-immobilized peptide, after 12 and 24 hours: 90%
